# Like-named read-outs stand apart in the source and are kept apart here.
# T1: YeaW, Rieske-type oxygenase component of carnitine monooxygenase from E. coli (E. coli) (UniProt P0ABR7)
# T1 sequence: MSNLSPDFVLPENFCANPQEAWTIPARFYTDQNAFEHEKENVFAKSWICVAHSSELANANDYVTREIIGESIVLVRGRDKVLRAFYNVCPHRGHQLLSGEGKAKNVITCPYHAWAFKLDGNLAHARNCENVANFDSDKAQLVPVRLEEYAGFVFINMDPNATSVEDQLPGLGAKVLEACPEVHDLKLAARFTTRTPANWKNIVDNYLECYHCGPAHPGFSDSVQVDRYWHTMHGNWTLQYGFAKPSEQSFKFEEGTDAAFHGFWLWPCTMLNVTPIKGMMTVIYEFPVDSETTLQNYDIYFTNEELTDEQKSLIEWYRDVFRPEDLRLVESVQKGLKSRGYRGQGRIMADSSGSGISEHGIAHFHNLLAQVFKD
# B1: YeaW, Rieske-type oxygenase component of carnitine monooxygenase from E. coli (enzyme, UniProt P0ABR7 1-374, looked up)
# chain: MSNLSPDFVLPENFCANPQEAWTIPARFYTDQNAFEHEKENVFAKSWICVAHSSELANANDYVTREIIGESIVLVRGRDKVLRAFYNVCPHRGHQLLSGEGKAKNVITCPYHAWAFKLDGNLAHARNCENVANFDSDKAQLVPVRLEEYAGFVFINMDPNATSVEDQLPGLGAKVLEACPEVHDLKLAARFTTRTPANWKNIVDNYLECYHCGPAHPGFSDSVQVDRYWHTMHGNWTLQYGFAKPSEQSFKFEEGTDAAFHGFWLWPCTMLNVTPIKGMMTVIYEFPVDSETTLQNYDIYFTNEELTDEQKSLIEWYRDVFRPEDLRLVESVQKGLKSRGYRGQGRIMADSSGSGISEHGIAHFHNLLAQVFKD
# notes: primers run from the start to the stop codon; No cleavage of the tag is described; calculated molecular mass 45,463 Da; Carries a Rieske-type [2Fe-2S] cluster and a mononuclear [Fe] center; also called oxygenase YeaW; catalytic unit YeaW
# B2: CntB, reductase component of carnitine monooxygenase from Acinetobacter baumannii (enzyme)
# chain: MASHYEMFPAVVTRVEQLTPLIKRFTFKRQDGQNFPRFSGGSHIIVKMNEQLSNAYSLMSCTQDLSTYQVCVRKDVEGKGGSVFMHDQCNEGCEIQISEPKNLFPLAETGNKHILIAGGIGITPFLPQMDELAARGAEYELHYAYRSPEHAALLDELTQKHAGHVFSYVDSEGSMLNLDELISSQPKGTHVYVCGPKPMIDAVIDCCNKHRYRDEYIHWEQFASTVPEDGEAFTVVLAKSNQEIEVQSNQTILQAIETLNIDVECLCREGVCGTCETAILEGEAEHFDQYLSDAEKASQKSMMICVSRAKGKKLVLDL
# B3: YeaX variant K313Q (enzyme)
# chain: MSDYQMFEVQVSQVEPLTEQVKRFTLVATDGKPLPAFTGGSHVIVQMSDGDNQYSNAYSLLSSPHDTSCYQIAVRLEENSRGGSRFLHQQVKVGDRLTISTPNNLFALIPSARKHLFIAGGIGITPFLSHMAELQHSDVDWQLHYCSRNPESCAFRDELVQHPQAEKVHLHHSSTGTRLELARLLADIEPGTHVYTCGPEALIEAVRSEAARLDIAADTLHFEQFAIEDKTGDAFTLVLARSGKEFVVPEEMTILQVIENNKAAKVECLCREGVCGTCETAILEGEADHRDQYFSDEERASQQSMLICCSRAQGKRLVLDL
# B4: YeaX variant D320N (enzyme)
# chain: MSDYQMFEVQVSQVEPLTEQVKRFTLVATDGKPLPAFTGGSHVIVQMSDGDNQYSNAYSLLSSPHDTSCYQIAVRLEENSRGGSRFLHQQVKVGDRLTISTPNNLFALIPSARKHLFIAGGIGITPFLSHMAELQHSDVDWQLHYCSRNPESCAFRDELVQHPQAEKVHLHHSSTGTRLELARLLADIEPGTHVYTCGPEALIEAVRSEAARLDIAADTLHFEQFAIEDKTGDAFTLVLARSGKEFVVPEEMTILQVIENNKAAKVECLCREGVCGTCETAILEGEADHRDQYFSDEERASQQSMLICCSRAKGKRLVLNL
# B5: YeaX variant K313E (enzyme)
# chain: MSDYQMFEVQVSQVEPLTEQVKRFTLVATDGKPLPAFTGGSHVIVQMSDGDNQYSNAYSLLSSPHDTSCYQIAVRLEENSRGGSRFLHQQVKVGDRLTISTPNNLFALIPSARKHLFIAGGIGITPFLSHMAELQHSDVDWQLHYCSRNPESCAFRDELVQHPQAEKVHLHHSSTGTRLELARLLADIEPGTHVYTCGPEALIEAVRSEAARLDIAADTLHFEQFAIEDKTGDAFTLVLARSGKEFVVPEEMTILQVIENNKAAKVECLCREGVCGTCETAILEGEADHRDQYFSDEERASQQSMLICCSRAEGKRLVLDL
# B6: YeaX variant D320K (enzyme)
# chain: MSDYQMFEVQVSQVEPLTEQVKRFTLVATDGKPLPAFTGGSHVIVQMSDGDNQYSNAYSLLSSPHDTSCYQIAVRLEENSRGGSRFLHQQVKVGDRLTISTPNNLFALIPSARKHLFIAGGIGITPFLSHMAELQHSDVDWQLHYCSRNPESCAFRDELVQHPQAEKVHLHHSSTGTRLELARLLADIEPGTHVYTCGPEALIEAVRSEAARLDIAADTLHFEQFAIEDKTGDAFTLVLARSGKEFVVPEEMTILQVIENNKAAKVECLCREGVCGTCETAILEGEADHRDQYFSDEERASQQSMLICCSRAKGKRLVLKL
# B7: YeaX variant R271K (enzyme)
# chain: MSDYQMFEVQVSQVEPLTEQVKRFTLVATDGKPLPAFTGGSHVIVQMSDGDNQYSNAYSLLSSPHDTSCYQIAVRLEENSRGGSRFLHQQVKVGDRLTISTPNNLFALIPSARKHLFIAGGIGITPFLSHMAELQHSDVDWQLHYCSRNPESCAFRDELVQHPQAEKVHLHHSSTGTRLELARLLADIEPGTHVYTCGPEALIEAVRSEAARLDIAADTLHFEQFAIEDKTGDAFTLVLARSGKEFVVPEEMTILQVIENNKAAKVECLCKEGVCGTCETAILEGEADHRDQYFSDEERASQQSMLICCSRAKGKRLVLDL
# B8: YeaX variant R271Q (enzyme)
# chain: MSDYQMFEVQVSQVEPLTEQVKRFTLVATDGKPLPAFTGGSHVIVQMSDGDNQYSNAYSLLSSPHDTSCYQIAVRLEENSRGGSRFLHQQVKVGDRLTISTPNNLFALIPSARKHLFIAGGIGITPFLSHMAELQHSDVDWQLHYCSRNPESCAFRDELVQHPQAEKVHLHHSSTGTRLELARLLADIEPGTHVYTCGPEALIEAVRSEAARLDIAADTLHFEQFAIEDKTGDAFTLVLARSGKEFVVPEEMTILQVIENNKAAKVECLCQEGVCGTCETAILEGEADHRDQYFSDEERASQQSMLICCSRAKGKRLVLDL
# Legend:
# [1] = molecular target: T2, YeaW (carnitine monooxygenase oxygenase component) (Escherichia coli, UniProt P0ABR7); experiment: L-carnitine depletion assay with purified YeaX/YeaW; slow conversion to TMA also shown by GC-MS; format: biochemical
# T2 construct: N-terminal strep tag II fusion; with YeaX
# T2 sequence (P76254 whole entry, one chain of several, the tested form may be a part): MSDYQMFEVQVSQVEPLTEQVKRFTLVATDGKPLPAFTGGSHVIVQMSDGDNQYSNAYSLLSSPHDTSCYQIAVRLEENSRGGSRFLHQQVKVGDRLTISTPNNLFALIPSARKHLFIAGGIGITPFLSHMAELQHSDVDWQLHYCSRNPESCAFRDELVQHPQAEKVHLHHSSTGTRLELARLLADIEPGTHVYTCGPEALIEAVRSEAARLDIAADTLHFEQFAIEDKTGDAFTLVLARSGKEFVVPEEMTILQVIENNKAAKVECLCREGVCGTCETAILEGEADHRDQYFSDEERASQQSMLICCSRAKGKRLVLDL
# [2] = molecular target: T3, CntA (carnitine monooxygenase oxygenase component) (Acinetobacter baumannii, UniProt D0C9N6); experiment: L-carnitine depletion assay with purified proteins; format: biochemical
# T3 construct: with CntB (homologous system) or YeaX (chimeric system)
# T3 sequence (D0C9N6 whole entry): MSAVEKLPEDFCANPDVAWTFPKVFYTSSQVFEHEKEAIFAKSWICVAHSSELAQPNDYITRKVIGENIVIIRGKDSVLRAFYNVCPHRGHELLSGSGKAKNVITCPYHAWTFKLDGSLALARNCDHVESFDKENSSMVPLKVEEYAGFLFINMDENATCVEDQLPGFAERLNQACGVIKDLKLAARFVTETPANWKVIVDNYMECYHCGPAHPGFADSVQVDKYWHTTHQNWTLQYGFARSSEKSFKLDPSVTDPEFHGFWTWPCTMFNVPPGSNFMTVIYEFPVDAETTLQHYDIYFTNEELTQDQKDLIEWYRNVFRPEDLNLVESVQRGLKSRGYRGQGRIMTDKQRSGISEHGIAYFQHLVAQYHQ
# [3] = molecular target: T2, YeaW (carnitine monooxygenase oxygenase component); experiment: L-carnitine depletion and O2 depletion assays with purified proteins; format: biochemical
# [4] = molecular target: the molecule itself; experiment: SEC; analytical gel filtration, Superdex 200 increase 5/150 GL, 10 mM Hepes-NaOH pH 7.5, 150 mM NaCl, 0.45 ml min^-1, 20 µl samples (~300 µM), calibrated with protein standards
# [5] = molecular target: T1, YeaW, Rieske-type oxygenase component of carnitine monooxygenase from E. coli (E. coli)
# [6] = molecular target: T1, YeaW, Rieske-type oxygenase component of carnitine monooxygenase from E. coli (E. coli); remark: listed apart in the source
# [7] = molecular target: T1, YeaW, Rieske-type oxygenase component of carnitine monooxygenase from E. coli (E. coli); remark: listed apart in the source
# [8] = molecular target: T1, YeaW, Rieske-type oxygenase component of carnitine monooxygenase from E. coli (E. coli); remark: listed apart in the source
molecule,measurement,setting,value
C[N+](C)(C)NCCC(=O)[O-] [meldonium],IC50,[1],612 ± 68 µM
C[N+](C)(C)C[C@H](O)CC(=O)[O-] [L-carnitine],L-carnitine depletion assay with purified proteins,[2],353 ± 68 nmol/min/mg
same,L-carnitine depletion and O2 depletion assays with purified proteins,[3],1288 ± 48 nmol/min/mg
B1,stoichiometry N,[4],3
B2,Relative L-carnitine depletion activity of the chimeric enzyme (YeaX/YeaW = 100%),[5],20%
same,Relative O2 depletion activity of the chimeric enzyme (YeaX/YeaW = 100%),[5],4%
B3,residual L-carnitine depletion activity (wild type = 100%),[6],30%
same,residual O2 depletion activity (wild type = 100%),[6],30%
B4,L-carnitine depletion activity (wild type = 100%),[7],9%
same,O2 depletion activity (wild type = 100%),[7],11%
B5,residual L-carnitine depletion activity (wild type = 100%),[6],7%
same,residual O2 depletion activity (wild type = 100%),[6],11%
B6,residual L-carnitine depletion activity (wild type = 100%),[7],3%
same,residual O2 depletion activity (wild type = 100%),[7],7%
B7,residual L-carnitine depletion activity (wild type = 100%),[8],80%
same,residual O2 depletion activity (wild type = 100%),[8],70%
B8,residual L-carnitine depletion activity (wild type = 100%),[8],4%
same,residual O2 depletion activity (wild type = 100%),[8],11%
